In US20200010513A1:

Tests used:
Experiment in all cases: cell-based or functional assay
[1] = molecular target: TM-CIBN-NES-TEV-N-BLITz-1-tTA
[2] = molecular target: TM-CIBN-TEV-N-TEVseq-tTA with intact TEVseq without a fusion to the AsLOV2 protein
[3] = molecular target: TM-CIBN-NES-TEV-N-BLITz-6-tTA

NES-CRY2PHR-TEV-C
SEAP assay, fold gene expression by blue light (HEK293T cells) [1]: > 20 fold | SEAP assay, fold change of gene expression by blue light (HEK293T cells) [2]: 1.4 fold | SEAP assay, fold gene expression by blue light (HEK293T cells) [3]: > 20 fold
